Numbered stars: 1 amine (or outer) side, 2 acyl side, 3 side chain; on linkers, the order of the positions; unused ones are H or OH. Bridge positions count the residues as written; N and C are the ends. Ends that are not written are not given here. Phenylene(1,4-NHCOCH2)2 = O=C(C[*:1])Nc1ccc(NC(=O)C[*:2])cc1
Experiments:
CDK2 = CDK2 (Homo sapiens, UniProt P24941); assay: Phage Library Screening with NGS, CDK2; format: binding; parameters: Full length CDK2 (residues 1-298) with an N-terminal GST-3C-6×his-TEV tag; GST-3C-6×his-TEV (N, cleaved yes); made in house; host or cells: Sf9 (Bac-to-Bac baculovirus)
PPIA = biological target: T1, PPIA (Homo sapiens, UniProt P62937); assay: Phage Library Screening with NGS, PPIA; format: binding
T1 construct: Full length PPIA (residues 1-165) with an N-terminal 6×his-yBBR-TEV tag; 6×his-yBBR-TEV (N); made in house; host or cells: E. coli BL21 (DE3) CodonPlus RIPL
T1 sequence (P62937 whole entry, the tested form may be a part): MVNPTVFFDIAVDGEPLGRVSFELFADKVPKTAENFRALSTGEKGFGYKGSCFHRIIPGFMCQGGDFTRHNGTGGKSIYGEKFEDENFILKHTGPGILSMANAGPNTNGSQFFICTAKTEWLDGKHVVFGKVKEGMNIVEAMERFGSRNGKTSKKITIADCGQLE

[1] = target concentration 1000, first column
[2] = target concentration 1000, second column

Row | Sequence | phage screen counts, Target Concentration 10 (CDK2; CDK2, target concentration 10) | phage screen counts, Target Concentration 30 (CDK2; CDK2, target concentration 30) | phage screen counts, Target Concentration 100 (CDK2; CDK2, target concentration 100) | phage screen counts, Target Concentration 300 (CDK2; CDK2, target concentration 300) | phage screen counts, Target Concentration 1000 (CDK2; CDK2, target concentration 1000, first column) | phage screen counts, Target Concentration 1000 (CDK2; CDK2, target concentration 1000, second column) | phage screen counts, Target Concentration 10 (PPIA) | phage screen counts, Target Concentration 30 (PPIA) | phage screen counts, Target Concentration 100 (PPIA) | phage screen counts, Target Concentration 300 (PPIA) | phage screen counts, Target Concentration 1000 (PPIA; [1]) | phage screen counts, Target Concentration 1000 (PPIA; [2])
1 | PTCLNAFFACE (linker 3-10 via Phenylene(1,4-NHCOCH2)2 (inferred)) | 0 | 0 | 0 | 1 | 109 | 35 | – | – | – | – | – | –
2 | DPARADCHVAAYWCYHE | – | – | – | – | – | – | 0 | 1 | 4 | 7 | 9 | 7
3 | PECHVEAYFCE | – | – | – | – | – | – | 0 | 0 | 0 | 0 | 24 | 22
4 | DPARAACHVAAYWCYHQ | – | – | – | – | – | – | 0 | 1 | 3 | 7 | 6 | 7
5 | PNCHVEAWYCI | – | – | – | – | – | – | 0 | 0 | 0 | 1 | 12 | 12
6 | DPATMNCHVAAYFCIVE | – | – | – | – | – | – | 0 | 0 | 10 | 13 | 10 | 19
7 | DPARSDCHVAAYWCYHQ | – | – | – | – | – | – | 0 | 0 | 4 | 5 | 6 | 6
8 | DPARTDCHVAAYWCYHQ | – | – | – | – | – | – | 0 | 5 | 13 | 14 | 18 | 25
9 | PDCHVAAWMCF | – | – | – | – | – | – | 0 | 0 | 0 | 8 | 16 | 26
10 | DPARADCQVAAYWCYHQ | – | – | – | – | – | – | 0 | 3 | 13 | 16 | 20 | 21
11 | DPARADCHVAAYWCYQQ | – | – | – | – | – | – | 0 | 1 | 6 | 8 | 10 | 10
12 | PDCHIASWFCS | – | – | – | – | – | – | 0 | 0 | 0 | 3 | 25 | 5
13 | DPARADCRVAAYWCYHQ | – | – | – | – | – | – | 0 | 1 | 6 | 6 | 11 | 7
14 | PTCHIDAWVCY | – | – | – | – | – | – | 0 | 0 | 0 | 12 | 18 | 26
15 | DPAAFSCHVAAWQCHTL | – | – | – | – | – | – | 0 | 1 | 156 | 199 | 142 | 190
16 | DPARYSCHVAAYECILN | – | – | – | – | – | – | 0 | 0 | 17 | 14 | 41 | 27
17 | PYDCHIAAWMC | – | – | – | – | – | – | 0 | 0 | 0 | 0 | 20 | 35
18 | PDCHIYAFYCL | – | – | – | – | – | – | 0 | 0 | 1 | 5 | 8 | 18
19 | DPAAHDCHIAAYWCLNY | – | – | – | – | – | – | 0 | 7 | 116 | 208 | 201 | 121
20 | PDCHLNAYWCM | – | – | – | – | – | – | 0 | 0 | 1 | 47 | 47 | 115
21 | PDCHIQAYICH | – | – | – | – | – | – | 0 | 0 | 0 | 4 | 6 | 35
22 | DPARADCHVAAYWCHHQ | – | – | – | – | – | – | 0 | 0 | 4 | 5 | 8 | 7
23 | PDCHIAAWYCR | – | – | – | – | – | – | 0 | 0 | 0 | 0 | 11 | 10
24 | PDCHVAAYICY | – | – | – | – | – | – | 0 | 0 | 3 | 38 | 54 | 44
25 | PNCHVEAYFCM | – | – | – | – | – | – | 0 | 1 | 8 | 68 | 98 | 63
26 | PNCHVMAYWCW | – | – | – | – | – | – | 0 | 0 | 1 | 8 | 10 | 7

— patent US20240376151A1, “STAPLED PEPTIDES AND METHODS THEREOF” (FOG PHARMACEUTICALS, INC., priority 2022, published 2024)
